Molecular target: VAPB (endogenous, COS-7 cells) (African green monkey (endogenous in COS-7))
Assay: proximity ligation

PLA signals per cell (PLA signals per cell): 5.6 | PLA signals per cell (single plane) (PLA signals per cell): 10.4 | PLA signals per cell (z-stack) (PLA signals per cell): 11.3
Substance: ACBD5 (endogenous, COS-7 cells) (natural protein)

— publication PMC6565432
